Here are results for 2 molecules from paper PMC4714757, “Leishmania infantum Asparagine Synthetase A Is Dispensable for Parasites Survival and Infectivity” (PLoS Neglected Tropical Diseases, 2016).

In series [1] the target is Leishmania infantum asparagine synthetase A, recombinant, poly-His-tagged (Leishmania infantum). The experiment in a line: SEC; analytic size exclusion chromatography of purified recombinant LiAS-A on Superose 12 10/300GL, calibrated with standards (Kav against Log MW and Log Stokes radius); oligomeric state of the native protein.
Substrate in series [2]: N[C@@H](CC(=O)O)C(=O)O
Description: colorimetric assay of Asn formation, steady state. It is filed as biochemical, Leishmania infantum. The conditions noted are these: other substrates in excess, 8.4 mM Mg2+, 85 mM Tris.HCl pH 7.6, 37°C. From the text:
(§1) colorimetric assay of Asn formation, steady state on LiAS-A (Leishmania infantum asparagine synthetase A)

Substrate in series [3]: NC(=O)CC[C@H](N)C(=O)O
Description: colorimetric assay of Asn formation, steady state. The conditions noted are these: glutamine as nitrogen donor, other substrates in excess, 8.4 mM Mg2+, 85 mM Tris.HCl pH 7.6, 37°C. It is filed as biochemical, Leishmania infantum.
Source text: as §1

Substrate in series [4]: Nc1ncnc2c1ncn2[C@@H]1O[C@H](COP(=O)(O)OP(=O)(O)OP(=O)(O)O)[C@@H](O)[C@H]1O
Description: colorimetric assay of Asn formation, steady state. Type of series: biochemical, Leishmania infantum. The conditions noted are these: other substrates in excess, 8.4 mM Mg2+, 85 mM Tris.HCl pH 7.6, 37°C.
Source text: as §1

A word on the stoichiometry N: it is the number of molecules, sites or subunits per partner or assembly. In the case of “Leishmania infantum asparagine synthetase A, recombinant, poly-His-tagged (enzyme)”, the stoichiometry N in series [1] came to 2.

B1: LiAS-A (Leishmania infantum asparagine synthetase A) (Leishmania infantum) (protein)
chain: MSSSPQEYIDLQTRILRVKTIFAEELASALNLIQVECPMLACVGDGTQDNLSGVEKAVQVHVKEIPGANYEVVHSLAKWKRMTLGNHRFPVGRGIFTNMRALRVEETLDNIHSVYVDQWDWERVIAPADRCLEYLQATVRSLYEVLRETESRLCTEFPDIAPILPDSIKFVHTEQLLKRYPELDPKSREREAVKKLGAVFLIGIGCKLSHGDHHDVRAPDYDDWSSPVSVDSSKIGFPTADDEKPSVNTIMSLQGLNGDILVYNPVLDDVLELSSMGIRVDQEALRRQLEITGTSDRLQCRWHQCVLNGDLPQTIGGGIGQSRTVMFMLRKRHIGEVQCSVWPHEVTAQYSLL
notes: full length, 353 residues, N-terminal 6xHis tag (pET28a) with no cleavage stated, E. coli BL21(DE3)
What is called Km is the substrate concentration at which the rate is half of its maximum. The term kcat denotes the number of substrate molecules converted per active site and unit of time at saturation. On to B1, for which the Michaelis-Menten constant (Km) in series [2] is listed as 6.21 ± 1.15 mM; in series [3] it was 1.71 ± 0.28 mM; in series [4], 1.47 ± 0.04 mM. In addition, the kcat is 9.19 ± 0.69 s⁻¹ in series [2], 4.51 ± 0.19 s⁻¹ in series [3] and 4.18 ± 0.02 s⁻¹ in series [4].
